In this experiment the target is PATJ (UniProt Q8NI35). Description: reciprocal co-IP (Flag or HA), immunoblot. The conditions noted are these: reference: wild type HA-Amot-p130; sites S176. Background: A western blot detects proteins with antibodies after separation by electrophoresis.

As for “Amot-p130 (Angiomotin) (from UniProt Q8VHG2) S176A”, the “binding against the reference” value is reported as “lost”.

(Values after PMC5415356.)
